T1: Recombinant human CD40L (Human MegaCD40L; Axxora) (human, UniProt P29965 47-261, biotinylated with EZ-Link sulfo-NHS-biotin where used in the plate binding assay)
T1 construct: extracellular domain; Bought construct (Axxora ALX522110): two trimeric CD40 ligands linked via the ACRP30 collagen domain; also called biotinylated Human MegaCD40L; Mega human CD40L; not shown: FLAG tag and collagen domain of ACRP30/adiponectin that links two CD40L trimers
T1 sequence (looked up): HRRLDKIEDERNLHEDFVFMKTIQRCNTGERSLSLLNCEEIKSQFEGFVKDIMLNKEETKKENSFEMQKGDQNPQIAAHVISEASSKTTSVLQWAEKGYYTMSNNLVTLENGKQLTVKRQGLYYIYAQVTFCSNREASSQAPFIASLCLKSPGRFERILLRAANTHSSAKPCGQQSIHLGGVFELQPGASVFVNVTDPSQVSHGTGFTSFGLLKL

T2: Human CD40L, membrane form, on cells (Jurkat D1.1 cells; activated primary human T cells) (human, UniProt P29965 1-261)
T2 sequence: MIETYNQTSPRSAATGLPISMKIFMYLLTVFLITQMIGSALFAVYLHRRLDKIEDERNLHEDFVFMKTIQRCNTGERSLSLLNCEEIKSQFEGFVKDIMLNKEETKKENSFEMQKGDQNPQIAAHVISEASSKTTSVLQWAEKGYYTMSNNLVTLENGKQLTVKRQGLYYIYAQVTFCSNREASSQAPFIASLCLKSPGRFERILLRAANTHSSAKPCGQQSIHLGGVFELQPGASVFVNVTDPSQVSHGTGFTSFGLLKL


Assays:
[1] = biological target: Murine CD40L on cells (D10.G4 / D10G4.1 cells; activated murine T cells) (murine) (UniProt P27548); assay: cell-based or functional assay
[2] = biological target: Murine MegaCD40L (Axxora, cat. ALX522120) (murine) (UniProt P27548); assay: cell-based or functional assay
[3] = biological target: T1, Recombinant human CD40L (Human …); assay: capture ELISA: His-tagged Tn3 captured on anti-His antibody, biotinylated Human MegaCD40L detected with SA-HRP
[4] = biological target: T1, Recombinant human CD40L (Human …); assay: ProteOn XPR36 biosensor, human MegaCD40L immobilized on GLC chip, purified Tn3 as analyte
Protocol: Outputs were pool cloned into the soluble secretion vector as previously described, and five 96-well plates were screened for CD40L binding using the soluble protein screening assay described previously. Positive hits were identified relative to the signal obtained with the 311K4E backbone variant. […] PBS, 0.005% Tween20, 3 mM EDTA, pH7.4 was used as running buffer. Off-rates were ranked by visual inspection of the sensorgrams.

[5] = biological target: T2, Human CD40L, membrane form, on cells …; assay: cell-based or functional assay
[6] = biological target: Human CD40L, membrane form, on cells (Jurkat D1.1 cells; activated primary human T cells) (human) (UniProt P29965); assay: cell-based or functional assay
[7] = biological target: T2, Human CD40L, membrane form, on cells …; assay: cell-based or functional assay; remark: listed apart in the source
[8] = biological target: T1, Recombinant human CD40L (Human …); assay: ProteOn XPR36 biosensor, human MegaCD40L immobilized on GLC chip, Tn3 as analyte, equilibrium analysis, 25 C
Protocol: ProteOn phosphate buffered saline with 0.005% Tween 20, pH 7.4 (PBS/Tween) was used as running buffer. Human MegaCD40L was immobilized on the chip at a surface density of approximately 2300 RU. […] Samples of each concentration were injected into the six analyte channels at a flow rate of 30 μl/min. for 300 seconds. The Kd was determined by using the equilibrium analysis setting within the ProteOn software.

[9] = biological target: T1, Recombinant human CD40L (Human …); assay: cell-based or functional assay

Row | Molecule | PBMC IC50 [7] [nM] | Kd [8] [nM] | further results
1 | MR1 anti-murine CD40L monoclonal antibody | – | – | IC50, inhibition of CD86 up regulation on CD19+ B cells (PBMC stimulated with D10.G4 cells) [1]: 0.23 nM; IC50, inhibition of CD40L-induced NFκB activity [2]: 0.2 nM
2 | 311 variant with the DE loop changed to the parent Tn3 DE loop sequence (designed binder) AIEVKDVTDTTALITWTNRSSYYNLHGCELTYGIKDVPGDRTTIDLTEDENQYSIGNLKPDTEYEVSLICLTTDGTYSNPAKETFTTGGGTLGHHHHHHHH | – | – | binding result [3]: no binding
3 | Clone 311K4E_3 - Clone Variant from second round of affinity maturation (designed binder, Secreted His8-tagged form) AIEVEDVTDTTALITWINRSSYHNFPHCELAYGIKDVPGDRTTIDLNSPYVHYSIGNLKPDTEYEVSLICLTTDGTYSNPAKETFTTGGGTLGHHHHHHHH | – | – | Kd [4]: 6.4 nM
4 | Clone 311K4E_11 - Clone Variant from second round of affinity maturation (designed binder, Secreted His8-tagged form) AIEVEDVTDTTALITWTNRSSYANLPGCELTYGIKDVPGDRTTIDLNSPYVHYSIGNLKPDTEYEVSLICLTTDGTYSNPAKETFTTGGGTLGHHHHHHHH | – | – | Kd [4]: 6.3 nM
5 | Clone 311K4E_12 - Clone Variant from second round of affinity maturation (designed binder, Secreted His8-tagged form) AIEVEDVTDTTALITWTNRSSYSNLHGCELAYGIKDVPGDRTTIDLNQPYVHYSIGNLKPDTEYEVSLICLTTDGTYNNPAKETFTTGGGTLGHHHHHHHH | – | – | fold increase in potency in the PBMC assay relative to 311K4E [5]: 12 fold; Kd [4]: 1.1 nM
6 | Clone 311K4E - Variant from first round of affinity maturation (designed binder, Secreted His8-tagged form) AIEVEDVTDTTALITWTNRSSYYNLHGCELTYGIKDVPGDRTTIDLSSPYVHYSIGNLKPDTEYEVSLICLTTDGTYSNPAKETFTTGGGTLGHHHHHHHH | – | – | fold increase in potency over 311 in the PBMC assay [5]: ~100 fold; Kd [4]: 18 nM
7 | 309 variant with the BC loop changed to the parent Tn3 BC loop sequence (designed binder) AIEVKDVTDTTALITWFKPLAEIDGCELTYGIKDVPGDRTTIDLWWHSAWYSIGNLKPDTEYEVSLICYTDQEAGNPAKETFTTGGGTLGHHHHHHHH | – | – | binding result [3]: no binding
8 | 311-7GS bivalent tandem scaffold (designed binder) IEVKDVTDTTALITWTNRSSYYNLHGCELTYGIKDVPGDRTTIDLSSPYVHYSIGNLKPDTEYEVSLICLTTDGTYSNPAKETFTTGGGGSGGGGSGGGGSGGGGSGGGGSGGGGSGGGGSIEVKDVTDTTALITWTNRSSYYNLHGCELTYGIKDVPGDRTTIDLSSPYVHYSIGNLKPDTEYEVSLICLTTDGTYSNPAKETFTT | – | – | fold improvement over monovalent 311, inhibition of human CD40L-induced expression on CD19 positive human PBMCs [6]: 7 fold
9 | Clone 311K4E_15 - Clone Variant from second round of affinity maturation (designed binder, Secreted His8-tagged form) AIEVEDVTDTTALITWTNRSSYANYHHCELTYGIKDVPGDRTTIDLELYVHYSIGNLKPDTEYEVSLICLTTDGTYSNPAKETFTTGGGTLGHHHHHHHH | – | – | Kd [4]: 1.6 nM
10 | 311 variant with the BC loop changed to the parent Tn3 BC loop sequence (designed binder) AIEVKDVTDTTALITWFKPLAEIDGCELTYGIKDVPGDRTTIDLSSPYVHYSIGNLKPDTEYEVSLICLTTDGTYSNPAKETFTTGGGTLGHHHHHHHH | – | – | binding result [3]: no binding
11 | 311-3GS bivalent tandem scaffold (designed binder) IEVKDVTDTTALITWTNRSSYYNLHGCELTYGIKDVPGDRTTIDLSSPYVHYSIGNLKPDTEYEVSLICLTTDGTYSNPAKETFTTGGGGSGGGGSGGGGSIEVKDVTDTTALITWTNRSSYYNLHGCELTYGIKDVPGDRTTIDLSSPYVHYSIGNLKPDTEYEVSLICLTTDGTYSNPAKETFTT | – | – | fold improvement over monovalent 311, inhibition of human CD40L-induced expression on CD19 positive human PBMCs [5]: ~7 fold
12 | 309 variant with the DE loop changed to the parent Tn3 DE loop sequence (designed binder) AIEVKDVTDTTALITWSDEFGHYDGCELTYGIKDVPGDRTTIDLTEDENQYSIGNLKPDTEYEVSLICYTDQEAGNPAKETFTTGGGTLGHHHHHHHH | – | – | binding result [3]: no binding
13 | Clone 309FGwt - Parental clone with 'humanized' FG loop (designed binder) AIEVKDVTDTTALITWSDEFGHYDGCELTYGIKDVPGDRTTIDLWWHSAWYSIGNLKPDTEYEVSLICRRGDMSSNPAKETFTTGGGTLGHHHHHHHH | 760 | – | –
14 | Clone 344 - Affinity Mature variant (designed binder) AIEVKDVTDTTALITWSDEVGDYVVCELTYGIKDVPGDRTTIDLWYHMAWYSIGNLKPDTEYEVSLICRRGDMSSNPAKETFTTGGGTLGHHHHHHHH | 1.3 | – | –
15 | Clone 348 - Affinity Mature variant (designed binder, Secreted His8-tagged form) AIEVKDVTDTTALITWSDDIGLYVWCELTYGIKDVPGDRTTIDLWFHQAWYSIGNLKPDTEYEVSLICRRGDMSSNPAKETFTTGGGTLGHHHHHHHH | 1 | 1.8 | –
16 | Clone 345 - Affinity Mature variant (designed binder, Secreted His8-tagged form) AIEVKDVTDTTALITWSDDFAEYVGCELTYGIKDVPGDRTTIDLWWHSAWYSIGNLKPDTEYEVSLICRRGDMSSNPAKETFTTGGGTLGHHHHHHHH | 37.3 | 39 | –
17 | Clone 341 - Affinity Mature variant (designed binder) AIEVKDVTDTTALITWSDDFADYVWCELTYGIKDVPGDRTTIDLWWHSAWYSIGNLKPDTEYEVSLICRRGDMSSNPAKETFTTGGGTLGHHHHHHHH | 0.7 | – | –
18 | Clone 342 - Affinity Mature variant (w/WT FG loop) (designed binder, Secreted His8-tagged form) AIEVKDVTDTTALITWSDDFGEYVWCELTYGIKDVPGDRTTIDLWYHHAHYSIGNLKPDTEYEVSLICRRGDMSSNPAKETFTTGGGTLGHHHHHHHH | 0.7 | 1.4 | IC50, inhibition of human CD40L-induced NFκB activity (luciferase reporter HEK293 cells) [9]: 1.5 nM
19 | Clone 346 - Affinity Mature variant (designed binder, Secreted His8-tagged form) AIEVKDVTDTTALITWSDDFEEYVVCELTYGIKDVPGDRTTIDLWWHSAWYSIGNLKPDTEYEVSLICRRGDMSSNPAKETFTTGGGTLGHHHHHHHH | 9 | 14.9 | –
20 | Clone 309 - Parental clone isolated from naive Tn3 library (designed binder, Secreted His8-tagged form purified on Ni-NTA) AIEVKDVTDTTALITWSDEFGHYDGCELTYGIKDVPGDRTTIDLWWHSAWYSIGNLKPDTEYEVSLICYTDQEAGNPAKETFTTGGGTLGHHHHHHHH | 226 | 191 | –
21 | Clone 347 - Affinity Mature variant (designed binder, Secreted His8-tagged form) AIEVKDVTDTTALITWSDEVGQYVGCELTYGIKDVPGDRTTIDLWYHMAWYSIGNLKPDTEYEVSLICRRGDMSSNPAKETFTTGGGTLGHHHHHHHH | 11 | 10.7 | –
22 | Clone 340 - Affinity Mature variant (designed binder, Secreted His8-tagged form) AIEVKDVTDTTALITWSDDFDNYEWCELTYGIKDVPGDRTTIDLWYHMAWYSIGNLKPDTEYEVSLICRRGDMSSNPAKETFTTGGGTLGHHHHHHHH | 0.7 | 2.2 | –
23 | Clone 343 - Affinity Mature variant (designed binder, Secreted His8-tagged form) AIEVKDVTDTTALITWLDDWGSYHVCELTYGIKDVPGDRTTIDLWYHQAWYSIGNLKPDTEYEVSLICRRGDMSSNPAKETFTTGGGTLGHHHHHHHH | 0.6 | 2 | –
24 | Clone 349 - Affinity Mature variant (designed binder, Secreted His8-tagged form) AIEVKDVTDTTALITWSDEHAEFIGCELTYGIKDVPGDRTTIDLWWHSAWYSIGNLKPDTEYEVSLICRRGDMSSNPAKETFTTGGGTLGHHHHHHHH | 38.2 | 21 | –

From US20150098955A1 (VIELA BIO, published 2015)
